First the molecules themselves.
B1: Nuclear receptor subfamily 0 group B member 2 (Homo sapiens), Q15466 (parent)
chain: MSTSQPGACPCQGAASRPAILYALLSSSLKAVPRPRSRCLCRQHRPVQLCAPHRTCREALDVLAKTVAFLRNLPSFWQLPPQDQRRLLQGCWGPLFLLGLAQDAVTFEVAEAPVPSILKKILLEEPSSSGGSGQLPDRPQPSLAAVQWLQCCLESFWSLELSPKEYACLKGTILFNPDVPGLQAASHIGHLQQEAHWVLCEVLEPWCPAAQGRLTRVLLTASTLKSIPTSLLGDLFFRPIIGDVDIAGLLGDMLLLR

The variants in the first test derive from B1. The conditions noted are these: with mdm2_human MDM2, Q00987.
Chain of mdm2_human MDM2, Q00987 (Q00987 whole entry, looked up): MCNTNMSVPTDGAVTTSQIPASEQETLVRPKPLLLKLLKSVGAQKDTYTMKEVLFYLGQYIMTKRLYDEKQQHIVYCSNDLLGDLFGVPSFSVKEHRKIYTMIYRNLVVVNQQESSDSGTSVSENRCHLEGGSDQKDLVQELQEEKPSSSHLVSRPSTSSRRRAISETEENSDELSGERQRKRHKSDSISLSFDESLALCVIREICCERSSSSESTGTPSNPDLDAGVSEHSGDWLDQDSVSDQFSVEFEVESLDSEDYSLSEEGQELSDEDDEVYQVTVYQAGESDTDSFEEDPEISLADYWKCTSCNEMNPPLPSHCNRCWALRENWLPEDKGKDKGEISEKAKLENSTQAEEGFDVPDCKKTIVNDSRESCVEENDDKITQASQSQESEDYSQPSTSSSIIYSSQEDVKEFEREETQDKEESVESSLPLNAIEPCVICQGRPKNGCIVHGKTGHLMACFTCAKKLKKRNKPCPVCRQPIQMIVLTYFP
With MSTSQPGACPCQGAASRPAILYALLSSSLKAVPRPRSRCLCRQHRPVQLCAPHRTCREALDVLAKTVAFLRNLPSFWQLPPQDQRRLLQGCWGPLFLLGLAQDAVTFEVAEAPVPSILKKILLEEPSSSGGSGQLPDRPQPSLAAVQWLQCCLESFWSLELSPKEYACLNGTILFNPDVPGLQAASHIGHLQQEAHWVLCEVLEPWCPAAQGRLTRVLLTASTLKSIPTSLLGDLFFRPIIGDVDIAGLLGDMLLLR [K170N], the “effect of a mutation on the interaction” value was “increasing interaction”.

Variants of B1 are the subject of a further test. Particulars: with mdm2_human MDM2, Q00987. The source holds these as a separate data set.
Turning to MSTSQPGACPCQGAASRPAILYALLSSSLKAVPRPRSRCLCRQHRPVQLCAPHRTCREALDVLAKTVAFLRNLPSFWQLPPQDQRRLLQGCWGPLFLLGLAQDAVTFEVAEAPVPSILKKILLEEPSSSGGSGQLPDRPQPSLAAVQWLQCCLESFWSLELSPKEYACLRGTILFNPDVPGLQAASHIGHLQQEAHWVLCEVLEPWCPAAQGRLTRVLLTASTLKSIPTSLLGDLFFRPIIGDVDIAGLLGDMLLLR [K170R], the “effect of a mutation on the interaction” value is on record as “disrupting interaction”.

The values are drawn from IntAct's records for PubMed 22575647.
